Legend:
[1] = biological target: T1, human CXCR4 (chemokine (C-X-C motif) receptor 4) (human, UniProt P61073 1-352); assay: flow cytometry on HPB-ALL cells, Fab at 2.5 µg/ml
T1 construct: Endogenous on human tumour cell lines (Ramos, HPB-ALL, Raji, Jurkat, MM1.S, RPMI-8226, MOLP-8, MOLT-4) or transfected into CHO-K1 cells (DiscoveRx); also called CXCR4 receptor

[2] = biological target: T1, human CXCR4 (chemokine (C-X-C motif) …); assay: flow cytometry on HPB-ALL cells, Fab at 0.25 µg/ml
[3] = biological target: T1, human CXCR4 (chemokine (C-X-C motif) …); assay: flow cytometry on HPB-ALL cells, Fab at 0.25 µg/mL
Protocol: Binding of CXCR4 Fabs to CXCR4-expressing cells were measured by flow cytometry on HPB-ALL (Human T cell leukemia) cells. 150,000 HPB-ALL cells were resuspended in 100 uL FACS buffer (1×PBS+0.5% BSA) on 96 well plates. […] After removing the primary antibodies the cells were washed twice with FACS buffer and then resuspended in FACS buffer and 2 uL (3 ug) of 2nd Ab (Alexa Fluor 647-conjugated goat anti-human IgG, F(ab′)2 specific, Jackson ImmunoResearch Laboratories, West Grove Pa.) was then added to each well. The plates were incubated at 4 degree for another 30 min. Fluorescence signals were acquired by cell analyzer LSRII (BD Biosciences, San Jose Calif.).

[4] = biological target: T2, human CXCR4-enriched lipoparticles (LEV101, Integral Molecular) (human, UniProt P61073 1-352); assay: biosensor kinetic titration, Fab over captured human CXCR4 lipoparticles
T2 construct: Bought reagent; CXCR4 held in lipoparticles captured by biotinylated WGA on an SA chip; also called Lipoparticles containing CXCR4 proteins
T2 sequence (P61073 whole entry): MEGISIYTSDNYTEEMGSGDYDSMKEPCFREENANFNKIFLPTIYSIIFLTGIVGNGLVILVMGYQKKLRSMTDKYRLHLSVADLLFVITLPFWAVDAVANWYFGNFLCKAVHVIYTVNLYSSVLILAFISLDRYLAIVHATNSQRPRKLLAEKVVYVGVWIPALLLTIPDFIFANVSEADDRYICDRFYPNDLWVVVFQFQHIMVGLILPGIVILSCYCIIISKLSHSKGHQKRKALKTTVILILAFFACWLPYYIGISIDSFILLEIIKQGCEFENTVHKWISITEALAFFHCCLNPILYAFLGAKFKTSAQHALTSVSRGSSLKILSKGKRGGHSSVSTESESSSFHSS
Protocol: The binding affinity of each Fab was determined using human CXCR4-enriched lipoparticles (LEV101, Integral Molecular, Philadelphia Pa.). Biotinylated WGA (Sigma Aldrich, St. Louis Mo.)) can be coated on the SA chip to facilitate capturing lipoparticles containing CXCR4 proteins. […] J. Mol. Recognit.

T1 sequence (P61073 whole entry): as above

Row | Binder | MFI [1] | MFI [2] | MFI [3] | Kd [4] [nM] | koff [4] [s⁻¹] | kon [4] [M⁻¹ s⁻¹] | t½ [4] [min]
1 | h3G10.A57 VH / h3G10.2.72 VL Fab (Fab, V domains shown, Tested as Fab) VH: EVQLVESGGGLVQPGGSLRLSCAASGFTFSDYYMSWVRQAPGKGLEWVGFIRHKANFYTTEYSTSVKGRFTISRDDSKNSLYLQMNSLKTEDTAVYYCARDLPGFAYWGQGTLVTVSS VL: DIVMTQSPDSLAVSLGERATINCKSSQSLFNSRTRKNYLAWYQQKPGQPPKLLIYWASARESGVPDRFSGSGSGTDFTLTISSLQAEDVAVYYCKQSFRLRTFGGGTKVEIK | 4330 | 1220 | 2770 | 1.12 | 0.0013 | 1.1e+06 | 9
2 | h3G10.A57 VH / h3G10.A58A VL Fab (Fab, V domains shown, Tested as Fab) VH: EVQLVESGGGLVQPGGSLRLSCAASGFTFSDYYMSWVRQAPGKGLEWVGFIRHKANFYTTEYSTSVKGRFTISRDDSKNSLYLQMNSLKTEDTAVYYCARDLPGFAYWGQGTLVTVSS VL: DIVMTQSPDSLAVSLGERATINCKSSQSLFNSHTRKNYLAWYQQKPGQPPKLLIYWASARGSGVPDRFSGSGSGTDFTLTISSLQAEDVAVYYCKQSFRLRTFGGGTKVEIK | 7400 | 3610 | 3890 | 0.39 | 0.00063 | 1.6e+06 | 18.2
3 | h3G10.3.25 VH / h3G10.2.72 VL Fab (Fab, V domains shown, Tested as Fab) VH: EVQLVESGGGLVQPGGSLRLSCAASGFTFSDYYMSWVRQAPGKGLEWVGFIRHKANFYTTEYSTSDKGRFTISRDDSKNSLYLQMNSLKTEDTAVYYCARDLPGFAYWGQGTLVTVSS VL: DIVMTQSPDSLAVSLGERATINCKSSQSLFNSRTRKNYLAWYQQKPGQPPKLLIYWASARESGVPDRFSGSGSGTDFTLTISSLQAEDVAVYYCKQSFRLRTFGGGTKVEIK | 2680 | 454 |  |  |  |  | 
4 | h3G10.1.91 VH / h3G10.A58B VL Fab (Fab, V domains shown, Tested as Fab) VH: EVQLVESGGGLVQPGGSLRLSCAASGFTFSDYYMSWVRQAPGKGLEWVGFIRHKANFETTEYSTSVKGRFTISRDDSKNSLYLQMNSLKTEDTAVYYCARDLPGFAYWGQGTLVTVSS VL: DIVMTQSPDSLAVSLGERATINCKSSQSLFNSHTRKNYLAWYQQKPGQPPKLLIYWASARGSGVPDRFSGSGSGTDFTLTISSLQAEDVAVYYCKQSFNLRTFGGGTKVEIK |  |  | 4630 | 0.36 | 0.000286 | 803000 | 40.4
5 | h3G10.1.91 VH / h3G10.A58A VL Fab (Fab, V domains shown, Tested as Fab) VH: EVQLVESGGGLVQPGGSLRLSCAASGFTFSDYYMSWVRQAPGKGLEWVGFIRHKANFETTEYSTSVKGRFTISRDDSKNSLYLQMNSLKTEDTAVYYCARDLPGFAYWGQGTLVTVSS VL: DIVMTQSPDSLAVSLGERATINCKSSQSLFNSHTRKNYLAWYQQKPGQPPKLLIYWASARGSGVPDRFSGSGSGTDFTLTISSLQAEDVAVYYCKQSFRLRTFGGGTKVEIK |  |  | 5050 | 0.38 | 0.000341 | 908000 | 33.9
6 | h3G10.1.33 VH / h3G10.2.72 VL Fab (Fab, V domains shown, Tested as Fab) VH: EVQLVESGGGLVQPGGSLRLSCAASGFTFSDYYMSWVRQAPGKGLEWVGFIRHKANFYTTEYSTSVTGRFTISRDDSKNSLYLQMNSLKTEDTAVYYCARDLPGFAYWGQGTLVTVSS VL: DIVMTQSPDSLAVSLGERATINCKSSQSLFNSRTRKNYLAWYQQKPGQPPKLLIYWASARESGVPDRFSGSGSGTDFTLTISSLQAEDVAVYYCKQSFRLRTFGGGTKVEIK | 4140 | 848 |  |  |  |  | 
7 | h3G10.2.5 VH / h3G10.2.72 VL Fab (Fab, V domains shown, Tested as Fab) VH: EVQLVESGGGLVQPGGSLRLSCAASGFTFSDYYMSWVRQAPGKGLEWVGFIRHKANIYTTEYSTSVKGRFTISRDDSKNSLYLQMNSLKTEDTAVYYCARDLPGFAYWGQGTLVTVSS VL: DIVMTQSPDSLAVSLGERATINCKSSQSLFNSRTRKNYLAWYQQKPGQPPKLLIYWASARESGVPDRFSGSGSGTDFTLTISSLQAEDVAVYYCKQSFRLRTFGGGTKVEIK | 2790 | 390 |  |  |  |  | 
8 | h3G10.A57 VH / h3G10.A58B VL Fab (Fab, V domains shown, Tested as Fab) VH: EVQLVESGGGLVQPGGSLRLSCAASGFTFSDYYMSWVRQAPGKGLEWVGFIRHKANFYTTEYSTSVKGRFTISRDDSKNSLYLQMNSLKTEDTAVYYCARDLPGFAYWGQGTLVTVSS VL: DIVMTQSPDSLAVSLGERATINCKSSQSLFNSHTRKNYLAWYQQKPGQPPKLLIYWASARGSGVPDRFSGSGSGTDFTLTISSLQAEDVAVYYCKQSFNLRTFGGGTKVEIK |  |  | 3090 | 0.75 | 0.000515 | 688000 | 22.4
9 | h3G10.2.45 VH / h3G10.2.72 VL Fab (Fab, V domains shown, Tested as Fab) VH: EVQLVESGGGLVQPGGSLRLSCAASGFTFSDYYMSWVRQAPGKGLEWVGFIRHKANFYTTEYSTWVKGRFTISRDDSKNSLYLQMNSLKTEDTAVYYCARDLPGFAYWGQGTLVTVSS VL: DIVMTQSPDSLAVSLGERATINCKSSQSLFNSRTRKNYLAWYQQKPGQPPKLLIYWASARESGVPDRFSGSGSGTDFTLTISSLQAEDVAVYYCKQSFRLRTFGGGTKVEIK | 2780 | 929 |  |  |  |  | 
10 | h3G10.2.42 VH / h3G10.2.72 VL Fab (Fab, V domains shown, Tested as Fab) VH: EVQLVESGGGLVQPGGSLRLSCAASGFTFSDYYMSWVRQAPGKGLEWVGFIRHKVNFYTTEYSTSVKGRFTISRDDSKNSLYLQMNSLKTEDTAVYYCARDLPGFAYWGQGTLVTVSS VL: DIVMTQSPDSLAVSLGERATINCKSSQSLFNSRTRKNYLAWYQQKPGQPPKLLIYWASARESGVPDRFSGSGSGTDFTLTISSLQAEDVAVYYCKQSFRLRTFGGGTKVEIK | 4720 | 1760 |  |  |  |  | 
11 | h3G10.1.60 VH / h3G10.2.72 VL Fab (Fab, V domains shown, Tested as Fab) VH: EVQLVESGGGLVQPGGSLRLSCAASGFTFSDYYMSWVRQAPGKGLEWVGFIRHKANVYTTEYSTSVKGRFTISRDDSKNSLYLQMNSLKTEDTAVYYCARDLPGFAYWGQGTLVTVSS VL: DIVMTQSPDSLAVSLGERATINCKSSQSLFNSRTRKNYLAWYQQKPGQPPKLLIYWASARESGVPDRFSGSGSGTDFTLTISSLQAEDVAVYYCKQSFRLRTFGGGTKVEIK | 2810 | 396 |  |  |  |  | 
12 | h3G10.2.54 VH / h3G10.2.72 VL Fab (Fab, V domains shown, Tested as Fab) VH: EVQLVESGGGLVQPGGSLRLSCAASGFTFSDYYMSWVRQAPGKGLEWVGFIRHKANFYTTEYSTSVRGRFTISRDDSKNSLYLQMNSLKTEDTAVYYCARDLPGFAYWGQGTLVTVSS VL: DIVMTQSPDSLAVSLGERATINCKSSQSLFNSRTRKNYLAWYQQKPGQPPKLLIYWASARESGVPDRFSGSGSGTDFTLTISSLQAEDVAVYYCKQSFRLRTFGGGTKVEIK | 4610 | 1740 |  |  |  |  | 
13 | h3G10.1.7 VH / h3G10.2.72 VL Fab (Fab, V domains shown, Tested as Fab) VH: EVQLVESGGGLVQPGGSLRLSCAASGFTFSDYYMSWVRQAPGKGLEWVGFIRHKANKYTTEYSTSVKGRFTISRDDSKNSLYLQMNSLKTEDTAVYYCARDLPGFAYWGQGTLVTVSS VL: DIVMTQSPDSLAVSLGERATINCKSSQSLFNSRTRKNYLAWYQQKPGQPPKLLIYWASARESGVPDRFSGSGSGTDFTLTISSLQAEDVAVYYCKQSFRLRTFGGGTKVEIK | 4120 | 768 |  |  |  |  | 
14 | h3G10.B44 VH / h3G10.A58A VL Fab (Fab, V domains shown, Tested as Fab) VH: EVQLVESGGGLVQPGGSLRLSCAASGFTFSDYYMSWVRQAPGKGLEWVSFIRHKANFYTTEYSTSVKGRFTISRDNSKNTLYLQMNSLRAEDTAVYYCAKDLPGFAYWGQGTLVTVSS VL: DIVMTQSPDSLAVSLGERATINCKSSQSLFNSHTRKNYLAWYQQKPGQPPKLLIYWASARGSGVPDRFSGSGSGTDFTLTISSLQAEDVAVYYCKQSFRLRTFGGGTKVEIK | 9410 | 5120 |  |  |  |  | 
15 | h3G10.2.37 VH / h3G10.A58B VL Fab (Fab, V domains shown, Tested as Fab) VH: EVQLVESGGGLVQPGGSLRLSCAASGFTFSDYYMSWVRQAPGKGLEWVGFIRHKANFYTREYSTSVKGRFTISRDDSKNSLYLQMNSLKTEDTAVYYCARDLPGFAYWGQGTLVTVSS VL: DIVMTQSPDSLAVSLGERATINCKSSQSLFNSHTRKNYLAWYQQKPGQPPKLLIYWASARGSGVPDRFSGSGSGTDFTLTISSLQAEDVAVYYCKQSFNLRTFGGGTKVEIK |  |  | 4550 | 0.56 | 0.000449 | 797000 | 25.7
16 | h3G10.2.37 VH / h3G10.A58A VL Fab (Fab, V domains shown, Tested as Fab) VH: EVQLVESGGGLVQPGGSLRLSCAASGFTFSDYYMSWVRQAPGKGLEWVGFIRHKANFYTREYSTSVKGRFTISRDDSKNSLYLQMNSLKTEDTAVYYCARDLPGFAYWGQGTLVTVSS VL: DIVMTQSPDSLAVSLGERATINCKSSQSLFNSHTRKNYLAWYQQKPGQPPKLLIYWASARGSGVPDRFSGSGSGTDFTLTISSLQAEDVAVYYCKQSFRLRTFGGGTKVEIK |  |  | 4070 | 0.32 | 0.000418 | 1.29e+06 | 27.6
17 | h3G10.A57 VH / h3G10.2.25 VL Fab (Fab, V domains shown, Tested as Fab) VH: EVQLVESGGGLVQPGGSLRLSCAASGFTFSDYYMSWVRQAPGKGLEWVGFIRHKANFYTTEYSTSVKGRFTISRDDSKNSLYLQMNSLKTEDTAVYYCARDLPGFAYWGQGTLVTVSS VL: DIVMTQSPDSLAVSLGERATINCRSSQSLFNSRTRKNYLAWYQQKPGQPPKLLIYWASARESGVPDRFSGSGSGTDFTLTISSLQAEDVAVYYCKQSFRLRTFGGGTKVEIK | 5000 | 1380 |  |  |  |  | 

Source: patent US20150037328A1 (Pfizer, published 2015)
